Common to all, as to assay: cell-based or functional assay
The target of test [1] is HLA-A2 (human).
Test [2] addresses HLA-B and -C.
The target in test [3] is HLA-A, -B and -C.

In test [1], monoclonal antibody BB7.2 returned a γ-IFN Elispot, ICD-specific CD8+ T cell line on Fibro/ICD stimulators pre-incubated with antibody (50 µg/mL) (Elispot spots per well) of 213; a γ-IFN Elispot, clone 17D5 on Fibro/ICD stimulators, antibody at 25 µg/mL (Elispot spots per well) of 165; a γ-IFN Elispot, clone 17D5 on Fibros-H2N stimulators, antibody at 25 µg/mL (Elispot spots per well) of 98.
In test [2], monoclonal antibody BB123.2 yielded a γ-IFN Elispot, ICD-specific CD8+ T cell line on Fibro/ICD stimulators pre-incubated with antibody (50 µg/mL) (Elispot spots per well) of 5; a γ-IFN Elispot, clone 17D5 on Fibro/ICD stimulators, antibody at 25 µg/mL (Elispot spots per well) of 1; a γ-IFN Elispot, clone 17D5 on Fibros-H2N stimulators, antibody at 25 µg/mL (Elispot spots per well) of 0.
As to monoclonal antibody W6/32, in test [3], the γ-IFN Elispot, ICD-specific CD8+ T cell line on Fibro/ICD stimulators pre-incubated with antibody (50 µg/mL) (Elispot spots per well) was 4; the γ-IFN Elispot, clone 17D5 on Fibro/ICD stimulators, antibody at 25 µg/mL (Elispot spots per well) was 3; the γ-IFN Elispot, clone 17D5 on Fibros-H2N stimulators, antibody at 25 µg/mL (Elispot spots per well) was 0.

(Values after patent US20020039573A1.)
